Test results: patent publication US20050118674A1, “Engineering of Controlled Deamidation Rates in Peptides, Proteins, and Similar Structures” (priority 2003, published 2005)

Assay: First-order nonenzymatic deamidation of pentapeptides in Tris buffer
Type: physicochemical
Details: pH 7.4, 37.0° C., 0.15 M Tris HCl; Asn pentapeptides
Method in brief: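 Pentapeptides containing Asn or Gln in varied flanking sequences incubated at 37° C., pH 7.4, 0.15 M Tris buffer; first-order deamidation rates measured. Some Asn values estimated from remaining data; many Gln values derived from surface fitting rather than measured.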

Row | Substance | First-Order Deamidation Halftimes of GlyXxxAsnYyyGly [days]
1 | GlyGlyAsnPheGly (GGNFG; printed: GlyGlyAsnPheGly) | 64.0
2 | GlyGlyAsnProGly (GGNPG; printed: GlyGlyAsnProGly) | 7170
3 | GlyGlyAsnSerGly (GGNSG; printed: GlyGlyAsnSerGly) | 11.8
4 | GlyGlyAsnThrGly (GGNTG; printed: GlyGlyAsnThrGly) | 39.8
5 | GlyGlyAsnTrpGly (GGNWG; printed: GlyGlyAsnTrpGly) | 77.1
6 | GlyGlyAsnTyrGly (GGNYG; printed: GlyGlyAsnTyrGly) | 63.6
7 | GlyGlyAsnValGly (GGNVG; printed: GlyGlyAsnValGly) | 224
8 | GlyHisAsnAlaGly (GHNAG; printed: GlyHisAsnAlaGly) | 24.6
9 | GlyHisAsnAmCysGly | 33.8
10 | GlyHisAsnArgGly (GHNRG; printed: GlyHisAsnArgGly) | 48.9
11 | GlyHisAsnAspGly (GHNDG; printed: GlyHisAsnAspGly) | 31.2
12 | GlyHisAsnCysGly (GHNCG; printed: GlyHisAsnCysGly) | 43.9
13 | GlyHisAsnGluGly (GHNEG; printed: GlyHisAsnGluGly) | 69.4
14 | GlyHisAsnGlyGly (GHNGG; printed: GlyHisAsnGlyGly) | 1.14
15 | GlyHisAsnHisGly (GHNHG; printed: GlyHisAsnHisGly) | 10.7

Same assay, conditions: pH 7.4, 37.0 ° C., 0.15 M Tris HCl; Gln pentapeptides; 52 values measured, rest derived from surface fitting

Row | Substance | First-Order Deamidation Halftimes of GlyXxxGlnYyyGly [days]
16 | GlyGlyGlnAlaGly (GGQAG; printed: GlyGlyGlnAlaGly) | 5900
17 | GlyGlyGlnArgGly (GGQRG; printed: GlyGlyGlnArgGly) | 7200
18 | GlyGlyGlnAspGly (GGQDG; printed: GlyGlyGlnAspGly) | 7600
19 | GlyGlyGlnCysGly (GGQCG; printed: GlyGlyGlnCysGly) | 1900
20 | GlyGlyGlnGluGly (GGQEG; printed: GlyGlyGlnGluGly) | 7300
21 | GlyGlyGlnGlyGly (GGQGG; printed: GlyGlyGlnGlyGly) | 650
22 | GlyGlyGlnHisGly (GGQHG; printed: GlyGlyGlnHisGly) | 5900
23 | GlyGlyGlnIleGly (GGQIG; printed: GlyGlyGlnIleGly) | 6300
24 | GlyGlyGlnLeuGly (GGQLG; printed: GlyGlyGlnLeuGly) | 6200
25 | GlyGlyGlnLysGly (GGQKG; printed: GlyGlyGlnLysGly) | 6000
26 | GlyGlyGlnMetGly (GGQMG; printed: GlyGlyGlnMetGly) | 4500
27 | GlyGlyGlnPheGly (GGQFG; printed: GlyGlyGlnPheGly) | 7600
28 | GlyGlyGlnProGly (GGQPG; printed: GlyGlyGlnProGly) | 10000
29 | GlyGlyGlnSerGly (GGQSG; printed: GlyGlyGlnSerGly) | 5700
30 | GlyGlyGlnThrGly (GGQTG; printed: GlyGlyGlnThrGly) | 5200
31 | GlyGlyGlnTrpGly (GGQWG; printed: GlyGlyGlnTrpGly) | 15000
32 | GlyGlyGlnTyrGly (GGQYG; printed: GlyGlyGlnTyrGly) | 12000
33 | GlyGlyGlnValGly (GGQVG; printed: GlyGlyGlnValGly) | 6500
